Source: patent US20230390406A1, “Star Polymer Drug Conjugates” (Vaccitech North America, Inc., priority 2020, published 2023)

What was measured:
[1] = small molecule, not polymer-bound; cited from earlier work
[2] = tested on: Compound AL, Ac-A′SKSB-AMC
[3] = tested on: Compound AM, Ac-A′VnL-AMC
[4] = tested on: Compound AP, Ac-A′SKSnL-AMC
[5] = tested on: Compound AK, Ac-A′SK(Ac)SB-AMC
[6] = tested on: Compound AJ, Ac-A′SK(Ac)VB-AMC
[7] = tested on: Compound AN, Ac-A′SPVnL-AMC
[8] = tested on: Compound AI, Ac-A′SPVB-AMC
[9] = tested on: Compound AO, Ac-A′SK(Ac)SnL-AMC

Molecule	pKa [1]	cleavage of the peptide-AMC bond (HPLC, UV 350 nm, up to 6 hrs) [2]	cleavage of the peptide-AMC bond (HPLC, UV 350 nm, up to 6 hrs) [3]	cleavage of the peptide-AMC bond (HPLC, UV 350 nm, up to 6 hrs) [4]	cleavage of the peptide-AMC bond (HPLC, UV 350 nm, up to 6 hrs) [5]	cleavage of the peptide-AMC bond (HPLC, UV 350 nm, up to 6 hrs) [6]	cleavage of the peptide-AMC bond (HPLC, UV 350 nm, up to 6 hrs) [7]	cleavage of the peptide-AMC bond (HPLC, UV 350 nm, up to 6 hrs) [8]	cleavage of the peptide-AMC bond (HPLC, UV 350 nm, up to 6 hrs) [9]	cleavage of the peptide-AMC bond (HPLC, UV 350 nm, up to 6 hrs) (Compound AH, Ac-A′VB-AMC)
CC(C)(CCN)C(=O)O [DMBA, 4-amino-2,2-dimethylbutanoic acid]	about 4.8	–	–	–	–	–	–	–	–	–
cathepsin B (Sino Biological, protein human recombinant)	–	showed significant stability in mouse plasma, but were readily cleaved in the presence of human cathepsin	found to be metabolized quickly in the presence of cathepsin B as well as mouse plasma	showed significant stability in mouse plasma, but were readily cleaved in the presence of human cathepsin	showed significant stability in mouse plasma, but were readily cleaved in the presence of human cathepsin	Compound AJ was relatively stable in both matrices	found to be metabolized quickly in the presence of cathepsin B as well as mouse plasma	found to be metabolized quickly in the presence of cathepsin B as well as mouse plasma	showed significant stability in mouse plasma, but were readily cleaved in the presence of human cathepsin	found to be metabolized quickly in the presence of cathepsin B as well as mouse plasma
